Reference: publication PMC12329599, “Acetylation of microtubule-binding PinX1 orchestrates ribosome biogenesis to nutrient starvation via the RNA polymerase I preinitiation complex” (The Journal of Biological Chemistry, 2025)
Blank lines part the entries; values can stand above or below the binder they belong to.

Target: T1, Strep2-POLR1G (human, UniProt O15446 1-510)
T1 construct: POLR1G (RNA polymerase I subunit G), human, cloned into pET45a-Strep2; also called Strep2-tagged POLR1G; source: TSsetta (DE3) bacteria, purified (anti-Strep2 tag agarose beads)
Assay: pull-down; GST-PinX1 proteins on glutathione beads incubated with purified Strep2- or HA-tagged proteins in BC200 buffer (200 mM NaCl, 20 mM Tris-HCl pH 7.9, 20% glycerol, 0.2% NP-40) at 4 °C overnight; washed with BC500, BC200 or BC100; Western blot
Settings: both partners purified

T1 sequence (O15446 whole entry): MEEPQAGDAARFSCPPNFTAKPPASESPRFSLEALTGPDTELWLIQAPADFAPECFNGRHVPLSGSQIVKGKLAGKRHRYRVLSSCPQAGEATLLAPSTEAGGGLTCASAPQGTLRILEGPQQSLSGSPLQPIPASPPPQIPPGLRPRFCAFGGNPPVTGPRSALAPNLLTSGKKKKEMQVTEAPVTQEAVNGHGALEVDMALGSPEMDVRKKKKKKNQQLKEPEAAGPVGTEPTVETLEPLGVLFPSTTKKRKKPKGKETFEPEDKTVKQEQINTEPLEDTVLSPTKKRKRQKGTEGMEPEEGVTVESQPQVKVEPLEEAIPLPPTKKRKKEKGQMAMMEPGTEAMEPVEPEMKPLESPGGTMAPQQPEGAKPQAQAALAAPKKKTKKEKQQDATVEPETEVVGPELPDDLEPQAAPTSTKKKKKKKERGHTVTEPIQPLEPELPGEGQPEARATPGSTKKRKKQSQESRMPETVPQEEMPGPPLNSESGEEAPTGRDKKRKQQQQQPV

binding result: binds
B1: GST-PinX1 full-length (natural protein, human, UniProt Q96BK5 1-328, looked up)
chain: MSMLAERRRKQKWAVDPQNTAWSNDDSKFGQRMLEKMGWSKGKGLGAQEQGATDHIKVQVKNNHLGLGATINNEDNWIAHQDDFNQLLAELNTCHGQETTDSSDKKEKKSFSLEEKSKISKNRVHYMKFTKGKDLSSRSKTDLDCIFGKRQSKKTPEGDASPSTPEENETTTTSAFTIQEYFAKRMAALKNKPQVPVPGSDISETQVERKRGKKRNKEATGKDVESYLQPKAKRHTEGKPERAEAQERVAKKKSAPAEEQLRGPCWDQSSKASAQDAGDHVQPPEGRDFTLKPKKRRGKKKLQKPVEIAEDATLEETLVKKKKKKDSK
notes: PinX1, human, full length, cloned into pGEX-4T-3; also called GST-PinX1 FL; full length GST-PinX1; source: TSsetta (DE3) bacteria, IPTG-induced, purified (Glutathione-Sepharose 4B)

binding result: binds
B2: GST-PinX1 central section (aa 70–253) (domain or fragment, human, UniProt Q96BK5 70-253, looked up)
chain: TINNEDNWIAHQDDFNQLLAELNTCHGQETTDSSDKKEKKSFSLEEKSKISKNRVHYMKFTKGKDLSSRSKTDLDCIFGKRQSKKTPEGDASPSTPEENETTTTSAFTIQEYFAKRMAALKNKPQVPVPGSDISETQVERKRGKKRNKEATGKDVESYLQPKAKRHTEGKPERAEAQERVAKKK
notes: the truncations were of GST-PinX1; also called GST-PinX1 truncation; source: TSsetta (DE3) bacteria, IPTG-induced, purified (Glutathione-Sepharose 4B)
